Data from the nanobody polyreactivity screen of Harvey et al. (2022).

Experiment: yeast display, Sf9 membrane polyspecificity reagent, FACS + sequencing; frameworks hold sequencing errors
Procedure, shortened: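 Galactose induction of a Saccharomyces cerevisiae BJ5465 synthetic nanobody display library ran 36–48 hours. The cells were then stained for 1 hour at 4 °C with 10% biotinylated, detergent-solubilized Sf9 membrane reagent, pulled down on streptavidin microbeads and FACS-sorted into low and high (top ~1%) gates on expression and reagent-binding fluorescence. Labels for polyreactivity follow the gate of origin.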

| Sequence | polyreactivity (PSR sort gate) |
| --- | --- |
| QVQLVESVGGLVQAGGSLRLSCAASGSTFKYNAMGWYRQAHGKERELVAAISRRGGSTYYADSVKGRFTISRDNAKNTVYLQMNSLKPDETAVYYCAADIIRPVTVDYWGQGTQVTVSS | high polyreactivity |
| QVQLVESVGGLVQAGGSLRLSCAASGSTFNQYAMGWYRHPPGKERELVAAISWSGGRTYYADSVKGRFTISRDNAKNTVYLQMNSLKPEDTSVYYCNKLTRDGRKEDYWGQGTQVTVSS | high polyreactivity |
| QVQLVESVGGLVQAGGSLRLSCAASGSTFTDYDMGWYRQAPGKERELVADISSGGSTYYADSVKGRFTISRDNAKNTVYLQMNSLKPEDTAVYYCNTDLRLVYRTKGFISWGYDYWGQGTQVTVSS | low polyreactivity |
| QVQLVESVGGLVQAGGSLRLSCAASGSTFYIYAMRWYRQAPGKERELVARISGSGGSTYYADSVKGRFTISRDNAKNTVYLQMNSLKPEDTAVYYCAADAIYKYYQYYAFPYYRYDYWGLGTQVTVSS | low polyreactivity |
| QVQLVESVGGLVQAGGSLRLSCAASGSTFYSYSMGWYRQEPGKERELVAAISWNGGSTYYADSVKGRFTISRDNAKNTVYFQMNSLKPEVTAVYYCAARGGYPYWRYYRFYKMDYWGQGTQVTVSS | low polyreactivity |
| QVQLVESVGGLVQAGGSLRLSCAASGSTSSYYTMGWYRQAPGKERELVAYADSVKGRFTISRDNAKNTVYLQMNSLKPEDTAVYYCAAPRTYYSELTSPYDYWGQGTQVTVSS | low polyreactivity |
| QVQLVESVGGLVQAGGSLRLSCAASGTLATYAMGWYRQAHGKERELVAAIRYSDGRTYYADSVKGRFTISRDNAKNTVYLLMNSLKPEDTAVYYCAASFRGRGKKLDYWGQGTQVTVSS | low polyreactivity |
| QVQLVESVGGLVQAGGSLRLSCAASGYTFYRYAMGWYRQAPGKESELVAGISRDGGSTYYADSVKGRFTISRDNAKNTVYLQMNSLKPEDTAVYYCAADKTRYRLGRDYWGQGTQVTVSS | low polyreactivity |
| QVQLVESVGGLVQAGGSLRLSCADSGFTIYSYAMGWYRQAPGKERELVAAITQSGGSTYYADSVKGRFTISRDNAKNTVYLQMNSLKPEDTAVYYCAAVIYIDYDYGYYYWGQGTQVTVSS | low polyreactivity |
| QVQLVESVGGLVQAGGSLRLSCADSGSTFYFNAMGWYRQAPGKEREFVAAIEWSGGSTYYADSVKGRFTISRDNAKNTVYLQMNSLKPEDTAVYYCAAPYHYYGNSVGYADYDYWGQGTQVTVSS | low polyreactivity |
| QVQLVESVGGLVQAGGSLRLSCAGSGFTCGAYAMGWSRQAPRKERELVAAINTRGGSRYYADSVKGRFTISRDNAKNTVYLQMNSLKPEDTAVYYCAASVYFWYDYWGQGTQVTVSS | high polyreactivity |
| QVQLVESVGGLVQAGGSLRLSCAPSGRIFGKYAMGWYRQAPGKERELVADITWGGGSTNYADSVKGRFTISRDNAKNTVYLQMNSLNPDDTAVYYCATGFYYYLTKTIPYEYEYWGQGTQVTVSS | low polyreactivity |
| QVQLVESVGGLVQAGGSLRLSCASSVRTFYRYAMGWYRQAPGKERELVAAISRGGRTNYADSVKGRFTISRDNAKNTVYLQMNSLKPEDTAVYYCAVSNYGALYDYWGQGTQVSVSS | high polyreactivity |
| QVQLVESVGGLVQAGGSLRLSCDASGYIFKNYAMGWYIQAPGKERELVAAINWSGGNTYYADSVKGRFTISRDNAKNTVYLQMNSLKPEDTAVYYCNAVSSLRSYGYNYCGQGTQVTVSS | low polyreactivity |
| QVQLVESVGGLVQAGGSLRLSCPASGSTFTDYAMGWYRQAPGKERELVAANSWSGGSTYYADSVKGRFTISRDNAKNTVYLQMNSLKPEDTAVYYCAFRYHGYDYWGQGTQVTVSS | high polyreactivity |
| QVQLVESVGGLVQAGGSLRLSCSASGRTFSYYTMGWYRQAPGKERELVADINTSVGSTDYADSVKGRFTISRDTAKNTVYLQMNSLKPEDTAVYYCQLIRRGHDYWGQGTQVTVSS | high polyreactivity |
| QVQLVESVGGLVQAGGSLRLSCSASGSIFDYYAMGWYRQAPGKQRELVAAITSGGSTYYADSVKGRFTISRDNAKNTVYLQMNSLNPEDTAVYYCNATYYYWLSYDYWGQGTQVSVSS | low polyreactivity |
